{"source": "patent US8691225B2", "about": "“Antibodies against the ectodomain of ErbB3 and uses thereof” (Merrimack Pharmaceuticals, Inc., priority 2007, dated 2014)", "molecules": {"B1": {"name": "Ab #6: human anti-ErbB3 antibody from Fab-phage library, CDRs SEQ ID NOs:7-12; used as IgG1 and IgG2 isotypes; in phase I trials as MM-121 (antibody, V domains shown)", "VH": "EVQLLESGGGLVQPGGSLRLSCAASGFTFSHYVMAWVRQAPGKGLEWVSSISSSGGWTLYADSVKGRFTISRDNSKNTLYLQMNSLRAEDTAVYYCTRGLKMATIFDYWGQGTLVTVSS", "VL": "QSALTQPASVSGSPGQSITISCTGTSSDVGSYNVVSWYQQHPGKAPKLIIYEVSQRPSGVSNRFSGSKSGNTASLTISGLQTEDEADYYCCSYAGSSIFVIFGGGTKVTVL"}}, "key": {"[1]": {"test_system": "AdrR (ovarian) xenograft", "assay": "xenograft tumor growth in nude mice", "type": "in vivo, mouse", "settings": "300 ug every three days (Q3d); p<0.05", "protocol": "(§1) For example, T-cell deficient nu/nu mice (3-4 week old female mice originated at NIH; outbred; albino background) are purchased from Charles River Labs (Wilmington, Mass.) for xenograft studies. AdrR cells for implantation are grown in culture (RPMI media, 10% FBS, L-glutamine and antibiotics, 37° C., 5% CO2) to about 85% confluency before harvesting. Cells are kept on ice until implantation. Mice are implanted via subcutaneous injection with 100 μl AdrR cells (6×10^6 cells in PBS) on the right flank and allowed to recover while being monitored for initial tumor growth.\n(§2) Tumors are measured (length by width) by digital caliper and the mice are dosed with IgG2a (Sigma, M7769-5MG) by intravenous injection.\n(§3) Final tumor measurements (L×W) are taken, the mice are euthanized by CO2 asphyxiation and tumors are excised, snap frozen in liquid nitrogen, and are stored at −80° C. (for biochemical analysis). Final tumor measurements are analyzed and graphed by tumor area and tumor volume, as described in Burtrum et al., supra. The data are also analyzed by “normalized” and “non-normalized” means for both tumor volume and tumor area. For the “normalization” of the data, at each time point of measurement, each tumor in each group is divided by the initial tumor size determined by caliper measurement."}, "[2]": {"test_system": "OvCAR8 (ovarian) xenograft", "assay": "xenograft tumor growth in nude mice", "type": "in vivo, mouse", "protocol": "as §1, §2, §3"}, "[3]": {"test_system": "HB-EGF binding to AdrR cells", "assay": "biotinylated HB-EGF binding to AdrR cells by FACS", "type": "cell-based, human", "settings": "12.5 μM antibodies, 200 nM HB-EGF", "protocol": "After 30 minutes, 50 μl of 400 nM biotinylated HB-EGF is added to the cells and incubated for another 30 minutes on ice. This yields a final concentration of 12.5 μM antibodies and 200 nM HB-EGF. Cells are then washed twice with 500 μl BD stain buffer and incubated with 100 μl of a 1:200 dilution of streptavidin-PE (PE=phycoerythrin) (Invitrogen) in BD stain buffer for 45 minutes. Finally, cells are washed twice, resuspended in 300 μl of BD stain buffer and analyzed in a FACSCALIBUR flow cytometer. As a positive control, 1×10^5 AdrR cells are incubated with 200 nM HB-EGF for 30 minutes on ice, washed twice and incubated with a 1:200 dilution of streptavidin-PE for 45 minutes. To assess background staining from the streptavidin-PE conjugate, cells are incubated with 100 μl of a 1:200 dilution of streptavidin-PE only for 45 minutes."}, "[4]": {"test_system": "DU145 (a prostate tumor cell line) xenograft tumors", "assay": "DU145 xenograft combination therapy", "type": "in vivo, mouse", "settings": "Ab #6 300 μg IP every three days; taxol 20 mg/kg IP once per week", "protocol": "In a second experiment, mice bearing DU145 (a prostate tumor cell line) xenograft tumors are prepared by establishing tumors subcutaneously in the flanks of nude mice (Charles River Laboratories). […] Again, tumor size is measured twice a week and measurements are used to calculate tumor volume."}, "[5]": {"test_system": "phosphorylated ErbB3 (pErbB3) in AdrR ovarian xenografts", "assay": "ErbB3 phosphorylation in AdrR ovarian xenografts in vivo", "set-up": "species or system mouse", "settings": "pErbB3 in ng/mg of total protein", "protocol": "The samples are pulverized substantially as described in Example 5 supra, with respect to FIG. 8. The BCA assay is performed substantially as set forth in the Materials and Methods section supra, and the ELISA assay is performed substantially as described in Example 5 supra with respect to FIG. 8."}, "[6]": {"test_system": "ACHN (a renal tumor cell line) xenograft tumors", "assay": "ACHN xenograft combination therapy", "type": "in vivo, mouse", "settings": "Ab #6 300 μg IP every three days; erlotinib 25 mg/kg orally once daily", "protocol": "In a first experiment, mice bearing ACHN (a renal tumor cell line) xenograft tumors are prepared by establishing tumors subcutaneously in the flanks of nude mice (Charles River Laboratories)."}, "[7]": {"test_system": "MCF-7 cells", "assay": "VEGF secretion assay (VEGF ELISA)", "type": "cell-based, human", "settings": "untreated and HRG treated MCF-7", "source_text": "(§4) In contrast, HRG is able to induce more than a doubling of VEGF secretion in MCF-7 and T47D cells."}, "[8]": {"test_system": "COLO-357 cells", "assay": "VEGF secretion assay (VEGF ELISA)", "type": "cell-based, human", "settings": "untreated and HRG treated COLO-357", "source_text": "as §4"}, "[9]": {"biological_target": "T1, ErbB3 in MALME-3M cells (Homo sapiens, UniProt P21860)", "T1 construct": "ErbB3 expressed on MALME-3M melanoma cells; host or cells: MALME-3M melanoma cells", "assay": "total ErbB3 levels in MALME-3M cells in vitro by ELISA", "type": "cell-based", "settings": "24 hours", "protocol": "MALME-3M cells are seeded in 96 well tissue culture plates and grown in RPMI-1640 media supplemented with antibiotics, 2 mM L-glutamine and 10% fetal bovine serum (FBS) for 24 hours at 37° C. and 5% carbon dioxide. Media are then switched to the same medium without FBS and with and without the antibody at concentrations of 1 uM, 250 nM, 63 nM, 16 nM, 4.0 nM, 1.0 nM, 240 pM, 61 pM and 15 pM. Medium containing no FBS or antibody is used as control. Cells are grown for 24 hours at 37° C. and 5% carbon dioxide, washed with cold PBS, then harvested with mammalian protein extract (MPER) lysis buffer (Pierce, 78505) to which 150 mM NaCl, 5 mM sodium pyrophosphate, 10 uM bpV (phen), 50 uM phenylarsine, 1 mM sodium orthovanadate, and protease inhibitor cocktail (Sigma, P2714) is added. Cell lysates are diluted two-fold with 4% bovine serum albumin in PBST (0.1% tween-20), then analyzed by ELISA with mouse anti-human ErbB3 capture antibody and biotinylated mouse anti-human ErbB3 secondary detection antibody. Signal is generated with streptavidin conjugated to horseradish-peroxidase reacted with SUPERSIGNAL ELISA Pico chemiluminescent substrate (Pierce, 37070). ELISAs are quantitated using a luminometer."}}}
{"molecule": "B1", "values": [{"measurement": "inhibition of tumor growth", "setting": "[1]", "result": "significant inhibition of tumor growth"}, {"measurement": "inhibition of tumor growth", "setting": "[2]; 300 ug every three days (Q3d), p<0.05", "result": "significant inhibition of tumor growth"}, {"measurement": "inhibition of tumor growth", "setting": "[2]; 1500 ug Q3d versus 600 ug", "result": "did not result in increased efficacy"}, {"measurement": "inhibition of HB-EGF binding to AdrR cells", "setting": "[3]", "result": "does not inhibit this binding"}, {"measurement": "inhibition of tumor growth (tumor volume)", "setting": "[4]", "result": "inhibited tumor growth"}, {"measurement": "inhibition of ErbB3 phosphorylation in vivo", "setting": "[5]", "result": "significantly inhibited ErbB3 phosphorylation"}, {"measurement": "inhibition of tumor growth (tumor volume)", "setting": "[6]", "result": "inhibit tumor growth"}, {"measurement": "inhibition of VEGF secretion", "setting": "[7]", "result": "potent inhibitory effect at high levels in all three cell lines"}, {"measurement": "inhibition of VEGF secretion", "setting": "[8]", "result": "potent inhibitory effect at high levels in all three cell lines with the highest being in COLO-357"}, {"measurement": "decrease of total ErbB3 levels", "setting": "[9]", "result": "about 46.9%"}]}
